Experimental findings from PMC3163394 (Cell, 2011) are described below.

This data set deals with the molecule itself. As to the kind of experiment: crystal structure.

B1: Shb17 (H13A), catalytically inactive mutant of sedoheptulose-1,7-bisphosphatase (enzyme, S. cerevisiae)
chain: MPSLTPRCIIVRAGQTEWSKSGQYTGLTDLPLTPYGEGQMLRTGESVFRNNQFLNPDNITYIFTSPRLRARQTVDLVLKPLSDEQRAKIRVVVDDDLREWEYGDYEGMLTREIIELRKSRGLDKERPWNIWRDGCENGETTQQIGLRLSRAIARIQNLHRKHQSEGRASDIMVFAHGHALRYFAAIWFGLGVQKKCETIEEIQNVKSYDDDTVPYVKLESYRHLVDNPCFLLDAGGIGVLSYAHHNIDEPALELAGPFVSPPEEESQHGDV
One may read the stoichiometry N as a count of units in the complex or per binding partner. With B1, the “stoichiometry N” value amounted to 2.
